The test deals with PD-L1 antigen (coated on 96-well immunoplate) (UniProt Q9NZQ7). The experiment in a line: single antigen ELISA, PD-L1 coated at 1 ug/mL, detection with anti-hFc-HRP. (An ELISA detects its analyte on a solid surface through an enzyme-linked reagent.)
Chain of PD-L1 antigen (coated on 96-well immunoplate) (Q9NZQ7 19-238 limits assumed): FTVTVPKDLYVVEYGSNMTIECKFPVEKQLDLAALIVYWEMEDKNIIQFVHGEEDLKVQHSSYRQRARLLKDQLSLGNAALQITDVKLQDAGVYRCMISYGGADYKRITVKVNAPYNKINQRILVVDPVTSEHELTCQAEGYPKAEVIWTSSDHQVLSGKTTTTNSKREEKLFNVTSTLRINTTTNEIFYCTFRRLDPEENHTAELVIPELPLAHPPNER

As a reminder, the EC50 (read off the curve) is the concentration that produces a half-maximal response. For the substance “Tecentriq (Genetech, atezolizumab, anti-PD-L1 antibody)”, the EC50 (read off the curve) was found to be 0.03 µg/mL.

Source of the values: patent US20220073586A1.
